Among the data in US20180134794A1 are IC50 (read off the curve), inhibition of HGF-induced SRE-luciferase signal values, retold here.

Test [1] addresses human MET (c-Met, HGFR) endogenously expressed on cell lines (human) (UniProt P08581).
For test [2] the target is unchanged. The source holds these as a separate data set.

Like-named read-outs stand apart in the source and are kept apart here.

human MET (c-Met, HGFR) endogenously expressed on cell lines (human), sequence (P08581 25-1390): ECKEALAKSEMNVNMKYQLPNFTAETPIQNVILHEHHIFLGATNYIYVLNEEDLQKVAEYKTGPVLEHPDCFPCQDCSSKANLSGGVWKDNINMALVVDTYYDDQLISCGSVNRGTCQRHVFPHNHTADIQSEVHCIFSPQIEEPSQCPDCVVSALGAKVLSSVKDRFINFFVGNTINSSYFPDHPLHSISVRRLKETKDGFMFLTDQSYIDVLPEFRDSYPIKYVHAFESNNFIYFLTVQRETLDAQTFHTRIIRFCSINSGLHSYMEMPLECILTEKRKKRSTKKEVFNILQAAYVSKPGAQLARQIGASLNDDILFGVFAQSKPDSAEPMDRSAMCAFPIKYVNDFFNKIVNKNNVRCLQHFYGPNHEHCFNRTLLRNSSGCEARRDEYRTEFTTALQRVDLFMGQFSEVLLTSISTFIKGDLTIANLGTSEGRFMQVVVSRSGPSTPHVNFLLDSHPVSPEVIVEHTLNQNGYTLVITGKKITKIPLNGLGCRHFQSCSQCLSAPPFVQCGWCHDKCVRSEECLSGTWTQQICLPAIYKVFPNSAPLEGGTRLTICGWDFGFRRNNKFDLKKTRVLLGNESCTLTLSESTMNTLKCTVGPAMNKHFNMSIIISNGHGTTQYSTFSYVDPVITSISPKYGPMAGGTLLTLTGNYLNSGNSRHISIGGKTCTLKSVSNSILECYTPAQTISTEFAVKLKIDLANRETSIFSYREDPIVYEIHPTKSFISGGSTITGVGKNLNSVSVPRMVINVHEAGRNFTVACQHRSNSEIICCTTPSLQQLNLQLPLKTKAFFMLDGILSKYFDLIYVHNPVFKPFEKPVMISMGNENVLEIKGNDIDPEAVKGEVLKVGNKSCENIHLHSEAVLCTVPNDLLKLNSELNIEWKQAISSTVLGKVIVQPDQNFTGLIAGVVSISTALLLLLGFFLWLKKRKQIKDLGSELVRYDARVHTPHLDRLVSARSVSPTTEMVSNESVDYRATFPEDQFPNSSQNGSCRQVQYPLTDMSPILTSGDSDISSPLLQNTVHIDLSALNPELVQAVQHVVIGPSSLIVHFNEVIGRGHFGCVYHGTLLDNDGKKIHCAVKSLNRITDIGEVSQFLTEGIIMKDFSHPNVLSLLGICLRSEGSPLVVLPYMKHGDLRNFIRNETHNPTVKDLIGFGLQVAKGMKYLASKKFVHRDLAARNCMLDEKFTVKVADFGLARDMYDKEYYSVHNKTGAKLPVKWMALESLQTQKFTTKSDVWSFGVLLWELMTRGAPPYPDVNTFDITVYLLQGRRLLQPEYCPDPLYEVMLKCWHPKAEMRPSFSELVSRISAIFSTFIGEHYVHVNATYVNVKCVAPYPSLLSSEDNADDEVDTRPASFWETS

Turning to “monovalent anti-MET antibody (heavy and light chain variable sequences of MetMab)”, the IC50 (read off the curve), inhibition of HGF-induced SRE-luciferase signal in test [1] came to 0.06 nM; in test [2], 0.4 nM.
